Assay results taken from a protein production outcome set (Wang et al. 2014).

Assay: label from the status in PepcDB records

In the case of “MLKLHLSEEERVIFASNLVASKKRFTKMEKGRFGNFLDNAKIISHIINPCLYDVEDATGYFLYSFTLNDERPK”, the protein production is reported as “failed”.

In the case of “FKGKNLLVIQVESLENFVINKSVNGQEITPNLNKLLKNSLYFSNYNEEVNQGTTSDAELMTNTSIYPVSTGSTFFRYPDNKYYNSLPKILERQGYYTQAMHGDKGSYWNWKPALKSIGFQNIVDSTGFKDDENIGLGLSDGSFLRQAEPMVEASKGPWYNYVITMSGHAPFDLPTKYRELKINSELDSSYLGGYLQSVHYEDKQIGIFLDNLRKSGALDNTMVVIYGDHCGIHKYYQSDVETTKGAESWMIDNHKEVPLIVYNSSLKGKEITTTGGQIDLMPTILYLMGIDKNEYLNTAMGRNLLNTNESYAVWSNGEFIG”, the protein production is reported as “failed”.

In the case of “MAVFVALGAFLMTLAGGWTAQRVTDRRHLVLGLAGGLMLGVVGMDLLPEALDAAGGKVFGVPAALLLFVAGFLLAHLVERLLAHRQAAHGGAESNGRAPEVGLTAAAAMVGHSAMDGVAIGAAFQVGGGMGLAVAVAVIAHDFADGFNTYTLTALYGNARRKAVIMLVADAVAPVLGAASTLAFTIPERLLGGYLALFGGALLYLAAAEILPEAHHEHPARSTLLCTVAGVGFIWLVVGLAG”, the protein production is reported as “failed”.

In the case of “MLRSTVIVTAHRRKAFIKDAIESVMENSLKPTEIIVVKNFKDYQIDSFLETYHVKNIYTDDETLGGKISLGIYQSSGDILFFLDDDDLFSKDKIREVIYKFSKYDIGFYHNAQEVIHNKLTGSNLSTDNQRFMYYTSIDTRRLKELLYKFKAGFNGSSIVISRDLAMRCVDLLKNVNISVDTFLLFCAVENNLPIMIDFRKLTYYRIIMSQNSNTEVNDKLFKMLYEDALYFKQIFSSKALRDFIEMSIIQHDFLYKIISKKEISKRDALISMVKMLRYSLKYPNKWNFFLQGLSLLSVFSAEKSRSLYLKKVRSNSMLSILEHHHHHH”, the protein production is reported as “not failed”.

For “MGYTLAEFLAHAIALETEAAERYVELADMMEAHNNLDTATVFRDMARFSTLHGDEIKQRSRALELPKLMSWQYRWKTPPEVGDENDIHYLMTPYHALRYARDNEIRGMEYYKEAAANSADPEVKRLGADFAAEEAEHVVALDKWIEKTPRPSITWSEDADPAQCVD”, the protein production was “not failed”.

For “MYSGAYSFVQISTAAYRISITRLEKTMESLQQQVAQLLEQQPTLLPAAMAEQLNVTEFDIVHALPEEMVAVVDGSHAQTILESLPEWGPVTTIMTIAGSIFEVKAPFPKGKVARGYYNLMGRDGELHGHLKLENISHVALVSKPFMGRESHYFGFFTAQGENAFKIYLGRDEKRELIPEQVARFKAMQQQHKQLEHHHHHH”, the protein production was “not failed”.

For “MNSLPRPDIGPFADTPEKRWVGVSFGAAAVGYDGVAALQREVGESLLAGIRHLGPPPARMLDLGAGTGHFSGLLVAAFPTAECLALDIAEGMLRFLRSHRPGADGMGLVVGDAEALPLADESVDLIFSNMAFQWCERLDRAISECCRVLRPGGRLAFSTFGEATLAELRMAWRAVDGYTHVNAFATRRSVEQELRAQGFTKIRLDARTLRRGYPSVLALMKELKALGARNLTRNRPRHLLSRHTLERVSEAYGRLPGMASAVTASFEVLTALVEK”, the protein production was “failed”.

In the case of “MKKKYFLCVFAVILFFTGFLFGNSPVNAAETDTSNVTYNYIDISTLTETQKNSIIKGNPNETLTNDYENYSFVYQKNTSEPTTNTDNTSDNNKNQNGTLLKAGDVGPNSYLIILGFILFGSGIGLLTLKKRHARQLLVFLVVLGGSSLLVGSIVQATENSNLKTQESQTVAKGTKETKQPESMEGYTYVGYIHTSKNNTPPVVEKGTVTVNYQDEQGNSLATSETLEGDIDQPYQTATKNIEGYQLKEVNGNTTGTFTEKAQVVTYVYQKVPVATVTVKYLDQDGNKIHDPQTISGNIGEPYDASTDKYKLRIEGYTLDTTKLPNNANGTFTNQAIEVTYIYTKEAQDVKITIKFVDSNGDPFVLTDLTTYKNGDLVPIYPNLDQYHMRLNYNQEIYNQGEAVPDIVIPAKEGETYSLPERMTFNILDDQGKQIPYVISQNADLSSTGIERWENYLSIPTNREGTLTSEDVVVTYQILVYGVMIPEP”, the protein production is reported as “failed”.

For “MSAFINQAAACAGDHAPRSAAQEARRGLRASLPVLLGFIPFALVLGAQATQKGLSVMEVPLMTGLNFGGGSEFTAIRLWTSPPHLLLIAAMSLLVNSRHLLMGAALAPYLRHVPRRRALAALFFMCDESWALALADAQSRATGRISLGYYLGVSAGLYLTWVVFTAIGAALGPVIGDVERYGFDMAFTAVFLVLLRGMWRGLRASRPWLASLAAAALTYRLMPDGAWYVAAGALAGLACAALTVPKEARA”, the protein production was “failed”.

With “MEQGAATADKEDFNARGKPTLFQLSFPLLLHSLLSFFVNLADTAIISAYSAEAAAAVAVAKQVMMIAFELSGLVGIGAVIVISRHLGRGEVEAARQVVAVALLTNTLVGLALGLSLMVAGPLVLEQLAGSTSLNDEAGLYLNIVAVGMVFNGFIAAGLACLRAFGHSRLILAFGVGVSAFYLLAEWVLILGVGPLPGMGVKGAALGTFSIRVMTTAILTPVLMWKLGLRFSFSDTVARFATARRMIAIALPSVTDYIAYSFYQIILLGLVARFGVEAVLGRTYTMLAMAFLIVVVMAISQSNEVLIGYRFGERRLEAATSQALRSASLAAAATTSIATLIWLASVPYIRLFTDNPAVIELCGSLLFLTIFIQPGFAFNTILFQSLRAVGDVRWPVFVSLTVTWGLGLSTAWFFCLFLNLGVTGVWLSLIIEETVKGSLFLHRWLSRGVRHEAG” the protein production was “failed”.

In the case of “MSLIVITGASSGLGAELAKLYDAEGKATYLTGRSESKLSTVTNCLSNNVGYRARDLASHQEVEQLFEQLDSIPSTVVHSAGSGYFGLLQEQDPEQIQTLIENNLSSAINVLRELVKRYKDQPVNVVMIMSTAAQQPKAQESTYCAVKWAVKGLIESVRLELKGKPMKIIAVYPGGMATEFWETSGKSLDTSSFMSAEDAALMIHGALANIGNGYVSDITVNREGHHHHHH”, the protein production is reported as “not failed”.

In the case of “MNKEALVNRLNASAKRQKADIVIKNGKIMDVYNQEWIYEDIAITDGVIVGLGEYEGENIIDAEGQMIVPGFIDGHVHIESSMVTPIEFAKAVLPHGVTTVVTDPHEIANVSGEKGIEFMLEQARHTPLNIHFMLPSSVPAASFERSGAILKAADLKPFYEEEEVLGLAEVMDYVSVQQAEKDMVQKLLDARVAGKRIDGHLAGLSTDLINIYRTAFVLNDHEVTSKEEALDRIRRGMYVMMREGSVAKNTLNVLPAVNEKNRTPVFFCTDDKHVDDLLSEGSVNHQVKMAIQAGLNPFLAYQLGSLNAAECYGLDTKGAIAPGFDADLLFVSDLENVTVTMTMVKGQTVAEDSKAVYQDHASTAAPDQALLDSVKLAAPLNKQDFHMPIDSEQQINVIQIIPNQLETRLVQVPAPVAREFEPDTELDLLKIAVVERHKGLKETGLGVVKGFGFKSGAIATTISHDSHNIIAVGTNDEDIAAAVNKLQEIGGGLTIIKNGEELHSVPLPIAGLLSDQSAEQVNQSLLTLHDKLSLIGFTGGFNPFLTLSFLALPVIPDIKMTTTGLFDVKSFQHISLQLEHHHHHH”, the protein production is reported as “not failed”.

For “MKKKNKLLFILGIIGPGLITVNAGNDAGGIATYATVGASYGYKMLWGLLLITFSLAIIQEMNARMAVVTGKGLSDLIRENYGVKWSLFAMCILFIANFGVCVGDFAGIAASLELFGISKYITVPIMAFLVWFVITKGSYEKTEKVFLAFTFVFFTYIITCIKVHPNWNVVMKATITPSLSFTKGYVLTLIGMIGTTITPYMQFYLQSSVVDKGLSVKEYKYEKIDVYLGAIWGDLVSFFIIVCTAVTLYKAGIKIDSAEQAAMALKPLAGNYATILFAAGLFGASVLATMVIPLSTTYAICEAFGFESGLDNSFSEAKTFYGIFTFMILFSAALVLVPKLSLVGIMLITQQIAGILSPVILIFMVLLINNKDIMGKYINNKLQNVIVYLTVAFIIILSLILFVSPIIDKLM”, the protein production was “failed”.

With “MFGISISSAILHFVIGGFAVALASIMADKVGGKLGGIIATMPAVYLAAIIALAIDHKGQQLIQMSIHLSTGAIVGIVSCIVTVFFTSIFIGKKNYRSGTVFAILCWFVISVAIFLVRHI” the protein production was “failed”.

For “MTKAETSIGVFYVSEYGYSDRLAQAIINGITKTGVGVDVVDLGAAVDLQELRELVGRCTGLVIGMSPAASAASIQGALSTILGSVNEKQAVGIFETGGGDDEPIDPLLSKFRNLGLTTAFPAIRIKQTPTENTYKLCEEAGTDLGQWVTRDRSIKAMKSLGLEHHHHHH”, the protein production was “not failed”.

With “MRFSLFVHMERVSDQQTQKQLYDEMIELCQIADRGGMHAIWTGEHHAMNFTIAPNPFLNIADLANKTKHVRLGTGTVVAPFWHPIKLAGEAAMTDIISNGRLDIGIARGAYSFEYERMVPGMDAWSAGQRLREMIPAIKNLWKGDYEHNGEFWQFPKTTSAPQPLQQPNPPIWVAARDPNSHEFAVQNGCNVQVTPLHLGDEEVEKLMGHFNSACEKFQDIERPEIMLLRHTYVADSEEDAQVAANEMNVFYNYFGAWFKNEREINQGLIAPLSDEEIAAHPFYTPEAMRKNNVIGQAQEVIDRLKAYEAMGYDEYSFWIDTGMSFERKKASLERMINEVMPAFSESKVDRRHATISAVY” the protein production was “failed”.

With “VISSDVIRGYVDTIILSLLIEGDSYGYEISKNIRIKTDELYVIKETTLYSAFARLEKNGYIKSYYGEETQGKRRTYYRITPEGIKYYKQKCEEWELTKKVINKFVKELESNGDN” the protein production was “not failed”.

For “MTQPEETPVSFIPSNFIEKGKILNGTFDIRNAIESIVLSLAIGIPVFHLPLSLTARIIILCMTALPAAMVALIGIGGESITAFLMNALRFVVNRRVIWRSDSLPEGKPRRKPRFKEPKTKKHRKAEKMAEPSKVMASAPPQSEPDAPAPPKSKKKEHRQFDTSTKRGIKKQAKEDIRYLKWEQKEASRQKKEAAKQIKIQKKTEARRRKEEEKRAVSEKRAAKKEQKKKVVSKEDTSSATSKPVSRKKRKKDQTLEDYLPVEKIANGIVYTTDGRYVKILEIEPINFLLRSAREQQGIIYSFISYLKISPVKLQIKMISKKADINKHLEQSQLELERETDPHCQELQRDYIQFVQNLSSREAVSRRFFLIFEYEPFNANRKEEEREILAALETASQTAKTFLYQCGNEVVSHDNEDEFTTDVLYTLLNRTLCTEVPLSNRISTVLSAYTKENRMEELDHIRINEFLAPESVDFKHSHYVQINGLYHSYLLVPSDGYKNRVTPGWLSLLVNAGEGIDIDFFLQKQPKDKIQQRLGQQIRINRSKLKDASDTNTDYDDLDSAIRSGYFLKQGLANNEDFYYMNLLITITASTLEELQWRIQEMKKLLISQDMNLHSCYFLQEQGFLSSLPLANLDKKLFKLSKRNVLTSGAASCYPFVSYSICDDNGILFGVNKHNNSLVIADIFDSRQYKNSNICILGCSGAGKTFTMQTMALRMRRKGIQVFIIAPLKGHEFYRAARNVGGEFIQISPASKNCINIMEIRKVDNSVNELLDGPTLDASALAGKIQRLHIFFSLLIPDMSHEEKQLLDEALIKTYARKGITHKNESLTDPQHPEQYKKMPILEDVYNVLLESEDTKRLAHILNRLVHGSASSFNQQTNVDLTNKYTVLDISELTGSSDLLTVGMFVALDYVWDKAKENRTEEKAIFVDEVWQLIGASSNRLAAEFVLEIAKIIRAYSGAGIFATQDLNDFFALDDGKYGKGIINNCKTKIILNMEDEEAQRVKTILHLSETEVMNITHFQRGNGLISTNNNNITVEFKASNLEKELITTERQELLEILAKQKKQAV”, the protein production was “failed”.

For “MFGKLLKKEIKELLNLGAIVSVIVVAVLYGSLGNVFKSTVEKSTVGQKVAIVREDTGTIAELAEKALGNMVDIVYAGSDLKEAEEAVKKEKAPAIIVIPKGFSQSLESGEKARLEIVWYLRGTGLSEAVSTGTISSLIESLKVQLASFLLNDPKKAQLLFDPLEIVQHTYLRGSLFKNHSPEAIMNVFYSQNIMIPILIMMLIIMSGSSLISSLAMEKENKTLETLLTMPVKREHIALAKIVGSAIVGLILAGIYMAGFYSYLNSLTQNVQGMGLNFKAVDFLLMGSSLFLSILAGLSLCMLLGMMAKDYRSAQLLTFPISILALVPMIANMIMDFSNLPGVLKVIVFLIPFSHPIMSPKLAFYGDYGLIVSGILYLLIFSIVTTVFVFRIFNSDYVVLGWQREKRLKFFSR”, the protein production was “failed”.
